Measured values published in the supplement of paper PMC9170038.

Tests used:
MS2 coat protein [1] = experiment: apparent KD of MS2 coat protein; designed switch direction (-1 OFF switch, 1 ON switch): 1; higher = weaker reporter binding
Method in brief: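 SNAP-549-labelled MS2 coat protein was titrated, doubling from 0.7 or 1.5 nM to 3 µM, over designed RNA switches transcribed on Illumina chips by stalled E. coli RNA polymerase. Runs were done without input, with 200 uM small-molecule ligand, or with an oligonucleotide input. Apparent KD is the per-design median over clusters of curve-fitted normalised fluorescence.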

MS2 coat protein [2] = experiment: apparent KD of MS2 coat protein; higher = weaker reporter binding; settings: Eterna round: R107
Method in brief: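 Designed RNA switches were made by on-chip transcription from Illumina sequencing clusters and then titrated with SNAP-549-labelled MS2 coat protein. Twofold steps ran from 0.7 or 1.5 nM to 3 µM, each lasting 0.8–1.5 h early and 10–20 min late, in 100 mM Tris-HCl pH 7.5, 80 mM KCl, 4 mM MgCl2, without or with constant ligand. Apparent KD is the per-design median of normalised cluster binding-curve fits.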

[3] = input ligand: microRNA oligo, concentration not stated
[4] = Eterna round: R95, input ligand: FMN 200 uM
[5] = Eterna round: R95, input ligand: microRNA oligo, concentration not stated
[6] = Eterna round: R95, input ligand: none
[7] = input ligand: theophylline 20 uM
[8] = input ligand: theophylline 2 mM
[9] = input ligand: tryptophan 2.4 mM

| Sequence | apparent KD of MS2 coat protein (MS2 coat protein [1]; input ligand: FMN 200 uM) | apparent KD of MS2 coat protein (MS2 coat protein [1]; [3]) | apparent KD of MS2 coat protein (MS2 coat protein [1]; input ligand: none) | apparent KD of MS2 coat protein (MS2 coat protein [2]; input ligand: arginine 13.2 mM) | apparent KD of MS2 coat protein (MS2 coat protein [2]; [7]) | apparent KD of MS2 coat protein (MS2 coat protein [2]; [9]) | further results |
| --- | --- | --- | --- | --- | --- | --- | --- |
| GCGAGCGUACUUGCAGACAUGAGGAUCACCCAUGUAACUGGACAGGAUAUGGUACCGUUUCGGUACCAGAAGGGUUUAUCAUGU [JL SSNG3 3.55] (Eterna round: R96, puzzle: Same State NG 3) | 167 nM | 140 nM | 193 nM |  |  |  |  |
| AGUCCAGCCUGAGCUGGACAAAAGCAUGUACAUGAGGAUCACCCAUGUCAUGUACAGGCUUUUUGCUCGUCUUAAUA [Zipper 49 - 7] (puzzle: Sensor for hsa-mir-208a) |  |  |  |  |  |  | apparent KD of MS2 coat protein (MS2 coat protein [1]; [4]): 433 nM; apparent KD of MS2 coat protein (MS2 coat protein [1]; [5]): 16.8 nM; apparent KD of MS2 coat protein (MS2 coat protein [1]; [6]): 583 nM |
| GUUUGACAUGAGGAUCACCCAUGUCAUACGGACACAGGAUAUCGUGGCCUGAAGCCGUCAUGAGAAGGGUGACCAA [Ceaza] (puzzle: Same State 1) |  |  |  |  |  |  | apparent KD of MS2 coat protein (MS2 coat protein [1]; [4]): 33.8 nM; apparent KD of MS2 coat protein (MS2 coat protein [1]; [5]): 14.3 nM; apparent KD of MS2 coat protein (MS2 coat protein [1]; [6]): 12.5 nM |
| UCUUGGUUUUUGCUCGUUUUUUGUGUUGAACAUGAGGAUCACCCAUGUAUUGUACGGUCCGGUUUGGUAAUGGUCCG [JMF 10] (puzzle: Sensor for hsa-mir-208a) |  |  |  |  |  |  | apparent KD of MS2 coat protein (MS2 coat protein [1]; [4]): 24.4 nM; apparent KD of MS2 coat protein (MS2 coat protein [1]; [5]): 16.1 nM; apparent KD of MS2 coat protein (MS2 coat protein [1]; [6]): 27.8 nM |
| CGUCCAGCCUGAGCUGGACAAAAGCAUGUACAUGAGGAUCACCCAUGUUCAUGUACAAGCUUUUUGCUCGUCUUACU [salish99_208a_r3_092x] (puzzle: Sensor for hsa-mir-208a) |  |  |  |  |  |  | apparent KD of MS2 coat protein (MS2 coat protein [1]; [4]): 590 nM; apparent KD of MS2 coat protein (MS2 coat protein [1]; [5]): 15.7 nM; apparent KD of MS2 coat protein (MS2 coat protein [1]; [6]): 793 nM |
| AUAAGAAACACAGGAUAUACCGCACUUAACGCGGUAGAAGGGUGGGACAUGAGGAUCACCCAUGUGGCCCGGGCGCCGGACCGC [Edquzative] (Eterna round: R96, puzzle: Same State NG 1) | 556 nM | 10 nM | 122 nM |  |  |  |  |
| AAUUUAAUACAUGAGGAUCACCCAUGUAAUACUAGUAAGAUCUAGGAUAUCAGCUCGAUUAGAGCUGAGAAGGAGAUCACAUGU [SSNG3/19-C2] (Eterna round: R96, puzzle: Same State NG 3) |  | 82.9 nM |  |  |  |  |  |
| UUAACAUGAGGAUCACCCAUGUAUACGUAGUUUGCAUUUUGACAGGAUAUUGAAUAUCUAUAUAGCAAGAAGGGUCGUUAGUCU [JR_SSNG3_Sub007] (Eterna round: R96, puzzle: Same State NG 3) | 61 nM | 49.1 nM | 56.7 nM |  |  |  |  |
| GGAAUAUUUACAGGAUAUGAGUUGUAAAGUCGAUCAGAAGGGUAGAUGUCUUACACGGUGUGUUACAUGAGGAUCACCCAUGUU [SameState NG1 #19] (Eterna round: R96, puzzle: Same State NG 1) | 169 nM | 160 nM | 218 nM |  |  |  |  |
| AGCCUGCCGCAAGGAUAUGAAGCUUUCGCUCCGUCAGAAGGUGCACAUGAGGAUCACCCAUGUAUGCAGGCCAAGAAAUAAAAC [Inbilerate] (Eterna round: R96, puzzle: Same State NG 1) | 20.1 nM | 33.9 nM | 52.9 nM |  |  |  |  |
| AGCUAGUACCGAGGAUAUACGUACAUGAGGAUCACCCAUGUAUACAUGGUUUAAUGAGACUACAUGUAGAAGGCGGUACUAGCA [JL SSNG2 1.25] (Eterna round: R96, puzzle: Same State NG 2) | 175 nM | 532 nM | 636 nM |  |  |  |  |
| GUGGUCAGACAUGAGGAUCACCCAUGUGGAAUAAAUAACAGACAGGAUAUGUAAUAUAGGAUAUAACAGAAGGGUCGAUUGGUG (Eterna round: R96, puzzle: Same State NG 3) |  | 64.4 nM |  |  |  |  |  |
| AAUAAGUUCAGCUCGUCUUGCGCCGACUGACAUGAGGAUCACCCAUGUGGAUUCCAAGAGAUCCAUUGGCGUGUUUC [Erisdian] (puzzle: Sensor for hsa-mir-208a) |  |  |  |  |  |  | apparent KD of MS2 coat protein (MS2 coat protein [1]; [4]): 37.9 nM; apparent KD of MS2 coat protein (MS2 coat protein [1]; [5]): 87.6 nM; apparent KD of MS2 coat protein (MS2 coat protein [1]; [6]): 79 nM |
| UUUAGCGUUACAGGAUAUGGUGAGGAUCACCCACUAGAAGGGUAAACAUGUGCGUCGUACAUGAGGAUCACCCAUGUAGGGCGU (Eterna round: R96, puzzle: Same State NG 1) | 14.4 nM | 13.7 nM | 22.6 nM |  |  |  |  |
| GUAAUACAUGAGGAUCACCCAUGUCAAUGUAGUCGAGGAUAUGGGUAGCUAUGAGGCGUACUAGAAGGCGAGGAGU [JL-ss1-3.18 ViennaUCT mod] (puzzle: Same State 1) |  |  |  |  |  |  | apparent KD of MS2 coat protein (MS2 coat protein [1]; [4]): 258 nM; apparent KD of MS2 coat protein (MS2 coat protein [1]; [5]): 72.1 nM; apparent KD of MS2 coat protein (MS2 coat protein [1]; [6]): 85.8 nM |
| GCUACCAUUGAAGCCAACAUGAGGAUCACCCAUGUAUGUUGGCAGGAUAUCGAUUGCAAAGCGAUCGAGAAGGGCUAAGGUAGC [Mat - Same State NG 3 - JL Mod - D86] (Eterna round: R96, puzzle: Same State NG 3) | 92.2 nM | 62.8 nM | 117 nM |  |  |  |  |

| Sequence | apparent KD of MS2 coat protein (MS2 coat protein [1]; input ligand: FMN 200 uM) | apparent KD of MS2 coat protein (MS2 coat protein [1]; [3]) | apparent KD of MS2 coat protein (MS2 coat protein [1]; input ligand: none) | apparent KD of MS2 coat protein (MS2 coat protein [2]; input ligand: arginine 13.2 mM) | apparent KD of MS2 coat protein (MS2 coat protein [2]; [7]) | apparent KD of MS2 coat protein (MS2 coat protein [2]; [9]) | further results |
| --- | --- | --- | --- | --- | --- | --- | --- |
| GCUCGAUGUGCUGUUUACAUGAGGAUCACCCAUGUAGAUGCGGAGGAUAUCUACGUGCUUUAUGUAGAGAAGGCCGUAUCGAGC [SameState NG3 #82] (Eterna round: R96, puzzle: Same State NG 3) | 15 nM | 25.4 nM | 35.1 nM |  |  |  |  |
| AGUCCAGCCUGAGCUGGACAAAAGCAUGUACAUGAGGAUCACCCAUGUUCAUGUACAAGCUUUUUGCUCGUCUUGCU [salish99_208a_r3_105x] (puzzle: Sensor for hsa-mir-208a) |  |  |  |  |  |  | apparent KD of MS2 coat protein (MS2 coat protein [1]; [4]): 578 nM; apparent KD of MS2 coat protein (MS2 coat protein [1]; [5]): 15.7 nM; apparent KD of MS2 coat protein (MS2 coat protein [1]; [6]): 680 nM |
| UUGAUUAGAAAUUAACAUGAGGAUCACCCAUGUAUUGGAUCAGAGGAUAUGCAUGUUUGAUUGUAGCAGAAGGCUGAUUGUGGA [JR_SSNG3_Sub028] (Eterna round: R96, puzzle: Same State NG 3) | 43.2 nM | 29.5 nM | 46.5 nM |  |  |  |  |
| GGACUAACCAGAAGGAGCGGCACGCAGAAACUGCAAUUUCCUCCACACGAGGAUCACCCGUGUCAGGUAGGUCGCUGGUUAGUCG [ArgBX 29] |  |  |  | 26.4 nM | 21.8 nM | 22.6 nM | apparent KD of MS2 coat protein (MS2 coat protein [2]; input ligand: none): 22.7 nM; apparent KD of MS2 coat protein (MS2 coat protein [2]; [8]): 23.8 nM |
| AAUUCCUCACAUGAGGAUCACCCAUGUGAAGGAGCGCCGAAUAAGGCAGGUAGGUCGCACAUGGAAACCGCUACGAAAGUAGUAA [XArg-A 2 NuV2] |  |  |  | 18.7 nM | 25.3 nM | 19.2 nM | apparent KD of MS2 coat protein (MS2 coat protein [2]; input ligand: none): 19.9 nM; apparent KD of MS2 coat protein (MS2 coat protein [2]; [8]): 22.1 nM |
| AAGUCAGGAGGCGAUACCAGUUACGACAUGGCCAGUUACAUGAGGAUCACCCAUGUGCGGAACCCUUGGCAGCGCUUACAUCGCU [theeternabot_exclusion_MS2_Theo_B_1] |  |  |  | 22.5 nM | 47 nM | 24.4 nM |  |
| GCACGAGUAAGACCUGACUUCAACAAUGAUACCAGACUAGUAAACGUCCCUUGGCAGCAUCAGACAUGAGGAUCACCCAUGUGGC [theeternabot_exclusion_MS2_Theo_A_44] |  |  |  | 26.4 nM | 39.1 nM | 34.3 nM |  |
| ACGAUACGACAUGAGGAUCACCCAUGUGAUACCAGCGUGGAAACACGCCCUUGGCAGCACAAAUACUCCAAUAACGUAUCGAAAA [MAT - Exclusion Theophlline A - Mod of Eli - D8] |  |  |  | 139 nM | 211 nM | 260 nM |  |
| CAAUAGAUAGCGGCCGCCACUUACUCAUGAGGUAACAACAUGAGGAUCACCCAUGUUUGAGGAUCAAGGACCGGGCUAUUUAUUG [AstrosSSTryB#7] |  |  |  | 29.1 nM | 39.1 nM | 19.1 nM | apparent KD of MS2 coat protein (MS2 coat protein [2]; input ligand: none): 27.5 nM; apparent KD of MS2 coat protein (MS2 coat protein [2]; [8]): 31.9 nM |
| AUAAAUAAAACCGAUACCAGCCUUAUACAUGAGGAUCACCCAUGUUAUGCUUCCUUUUUUGGCCCUUGGCAGCGGAAAUGGGUAA [AstrosSSTheB#1] |  |  |  | 45.3 nM | 74.4 nM | 75.6 nM |  |
| AGUAGACACGCGGCCGCCACUUGAGGAUCACCCAAGUGGUGUGUACUUGAAAACAAGUGCACAUCAAGGACCGGGCGUGUCUACA [Omei Tryp B SS D v3] |  |  |  | 7.19 nM | 8.01 nM | 8.54 nM | apparent KD of MS2 coat protein (MS2 coat protein [2]; input ligand: none): 7.05 nM; apparent KD of MS2 coat protein (MS2 coat protein [2]; [8]): 7.12 nM |
| CUGCCAUGCAGAGAUACCAGUGCGCUCAGCACAUGAGGAUCACCCAUGUUGGCUGCCGAUCACCCUUGGCAGCUCUGCAUGGCAG [#04 Same State - Theophylline B] |  |  |  | 10.9 nM | 12.5 nM | 8.66 nM |  |
| AAAACACAUGAGGAUCACCCAUGUCAUGAUACCAGUCCACAUGAGGACCCUUGGCAGCAUAAAAUGGGUAACAUGAGGAUAACCC [AstrosEXyTheA#4] |  |  |  | 26.5 nM | 48.1 nM | 23.4 nM |  |
| GGUUGGUGUAGAGAUAUAUUGAUUACUGAAGGAGCGGGAAAUAACCCAGGUAGGUCGCAGAGAUCCACAUGAGGAUCACCCAUGU [!0.K] |  |  |  | 30.6 nM | 53 nM | 29.8 nM | apparent KD of MS2 coat protein (MS2 coat protein [2]; input ligand: none): 39.7 nM; apparent KD of MS2 coat protein (MS2 coat protein [2]; [8]): 36.9 nM |
| GGGUGGUAGGCGGCCGCCACUGAUUUUUAUUUAUAGAUGACAUGAGGAUCACCCAUGUUGAUAUGCAGGACCGGGCCUGUUGUUG [aaaP] |  |  |  | 10.9 nM | 19.7 nM |  | apparent KD of MS2 coat protein (MS2 coat protein [2]; [8]): 15.4 nM |
